Experimental data taken from patent US20230190922A1.

Molecular target: human 4-1BB receptor (h4-1-BB) expressed on a genetically engineered Jurkat T cell line (4-1BB Bioassay, Promega) (human) (UniProt Q07011)
Experiment: cell-based or functional assay
Details: scale: relative luciferase expression

Sequence of human 4-1BB receptor (h4-1-BB) expressed on a genetically engineered Jurkat T cell line (4-1BB Bioassay, Promega) (human) (Q07011 24-255, change not shown): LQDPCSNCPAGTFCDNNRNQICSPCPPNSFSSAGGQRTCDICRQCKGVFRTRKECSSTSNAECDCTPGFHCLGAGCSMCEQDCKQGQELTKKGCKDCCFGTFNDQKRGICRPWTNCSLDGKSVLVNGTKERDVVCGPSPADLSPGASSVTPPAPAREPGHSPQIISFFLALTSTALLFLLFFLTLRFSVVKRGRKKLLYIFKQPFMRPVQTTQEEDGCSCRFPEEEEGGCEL

“His-tagged h4-1BBL cross-linked with an Fc (from UniProt P41273 71-254) (ligand)” was tested, and the luciferase expression by Jurkat-h4-1BB reporter cells (4-1BB Bioassay, Promega), reference value was 1.
